Substitutions are numbered along the chain they refer to. Names may count otherwise.
T1: Dimeric monkey CD48-mFc (monkey)
T1 construct: Soluble monkey CD48 with a C-terminal Fc fusion [mFc]; the whole entry is the construct
T1 chain: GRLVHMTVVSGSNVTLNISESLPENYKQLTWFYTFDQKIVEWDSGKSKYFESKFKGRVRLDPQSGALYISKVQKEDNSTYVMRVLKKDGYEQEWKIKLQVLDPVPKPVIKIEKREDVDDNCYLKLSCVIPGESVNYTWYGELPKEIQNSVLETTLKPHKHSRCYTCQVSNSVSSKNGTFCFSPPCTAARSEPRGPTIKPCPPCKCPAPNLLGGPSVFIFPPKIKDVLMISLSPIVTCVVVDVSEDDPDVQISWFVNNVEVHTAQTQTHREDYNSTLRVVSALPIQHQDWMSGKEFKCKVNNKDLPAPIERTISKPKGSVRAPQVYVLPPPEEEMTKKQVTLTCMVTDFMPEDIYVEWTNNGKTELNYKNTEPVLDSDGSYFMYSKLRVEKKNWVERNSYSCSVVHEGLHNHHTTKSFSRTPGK

T2: Monomeric monkey CD48-mmH (monkey)
T2 construct: Soluble monkey CD48 with a myc-myc-hexa-histidine C-terminal tag; the whole entry is the construct; also called mfCD48-mmH
T2 chain: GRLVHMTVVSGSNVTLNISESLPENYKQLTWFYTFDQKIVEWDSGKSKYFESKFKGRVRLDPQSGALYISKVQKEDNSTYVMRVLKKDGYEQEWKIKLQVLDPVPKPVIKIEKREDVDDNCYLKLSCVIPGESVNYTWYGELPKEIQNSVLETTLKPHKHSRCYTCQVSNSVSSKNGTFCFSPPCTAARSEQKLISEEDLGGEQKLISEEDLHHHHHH

T3: Monomeric human CD48-mmH (human)
T3 chain: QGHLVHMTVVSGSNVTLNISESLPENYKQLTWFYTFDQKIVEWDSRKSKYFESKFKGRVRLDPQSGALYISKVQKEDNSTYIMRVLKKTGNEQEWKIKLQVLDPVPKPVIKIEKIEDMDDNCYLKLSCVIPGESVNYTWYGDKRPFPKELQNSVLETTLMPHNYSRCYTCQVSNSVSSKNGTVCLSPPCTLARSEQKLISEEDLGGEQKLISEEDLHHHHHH

T4: Dimeric human CD48-mFc (human)
T4 construct: the whole entry is the construct; also called hCD48-mFc
T4 chain: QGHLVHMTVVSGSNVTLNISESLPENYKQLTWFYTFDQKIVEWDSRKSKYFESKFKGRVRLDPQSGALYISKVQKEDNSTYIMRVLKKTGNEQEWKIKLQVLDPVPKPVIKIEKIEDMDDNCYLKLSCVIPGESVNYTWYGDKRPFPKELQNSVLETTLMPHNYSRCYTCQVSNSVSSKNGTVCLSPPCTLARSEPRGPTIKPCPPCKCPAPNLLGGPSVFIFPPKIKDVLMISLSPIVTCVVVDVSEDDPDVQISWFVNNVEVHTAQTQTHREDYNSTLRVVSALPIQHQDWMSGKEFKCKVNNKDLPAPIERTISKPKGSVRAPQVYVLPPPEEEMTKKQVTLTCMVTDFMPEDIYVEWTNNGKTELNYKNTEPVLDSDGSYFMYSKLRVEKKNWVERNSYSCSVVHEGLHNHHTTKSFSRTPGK

B1: H4H1713N (antibody, V domains shown)
VH: QVQLVQSGAEVKKPGASVKVSCKASGHTFTNYYIHWVRQAPGQGLEWMGITNPNDGNTRYAQKFQGRISMTWDTSTSTVFMELSSLKSEDTAVYYCAGLRYWFFDLWGRGTPVTVSS
VL: DIQMTQSPSSVSASVGDRVTITCRASQDISSWLAWYQQKPGKAPNLLIFAASSLQSGVPSRFSGSGSGTDFTLTISSLQPEDFGTYYCQQTDNFPRTFGQGTKVEIN
notes: Human IgG4 Fc (H4H)
B2: H4H1707N (antibody, V domains shown)
VH: EGQLLESGGGLAQPGGSLRLSCAASGITFGRYAMSWVRQAPGKGLEWVSLISGSGGSTYHADSVKGRFTISRDNSKNTLYLQMNSLRAEDTAVYYCAIYNNYNWFDPWGQGTLVTVSS
VL: EIVLTQSPGTLSLSPGERATLSCRASQSVSSNYLAWYQQKPGQAPRLLIYDASSRATDIPDRFSGSGSGTDFTLTISRLEPEDFAVYYCQQYGSSPRTFGQGTKVEIK
notes: Human IgG4 Fc (H4H)
B3: H4H1764N (antibody, V domains shown)
VH: QVQLVESGGGVVQPGRSLRLSCAASGFTFSDYGMHWVRQAPGKGLEWVAVIWNDGSNKNYADSVKGRFSISSDSSKNTLYLHMNSLRAEDTAVYYCARSLYSTSPWYFDLWGRGTLVTVSS
VL: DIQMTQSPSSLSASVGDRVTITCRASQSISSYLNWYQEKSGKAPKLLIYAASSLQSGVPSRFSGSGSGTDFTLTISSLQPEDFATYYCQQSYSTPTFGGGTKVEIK
notes: Human IgG4 Fc (H4H)
B4: H4H1763N (antibody, V domains shown)
VH: QIQLVQSGAEMKRPGTSVKVSCKASGYTFTSYGINWVRQAPGQGLEWMGWISAYNGDTNYAQKLQGRVTMTTDTSTTTAYMEVRSLRSDDTAVYYCARFLTGTKDYYYGMDVWGQGTTVTVSS
VL: DIQMTQSPSSLSASVGDRVTITCQASQDISNFLNWYQQKPGKAPDLLINDASILETGVPSRFSGSGSGTDFTLTINNLQPEDIATYYCQQYDNLPLTFGGGTKVEIK
notes: Human IgG4 Fc (H4H)
B5: H2M1713N (antibody, mouse IgG2, V domains shown)
VH: B1 VH
VL: B1 VL
notes: Human variable domains, mouse IgG2 Fc (H2M)
B6: H3M1766N (antibody, V domains shown)
VH: EVQLVESGGGLAQPGGSLRLSCAASGFTFSSYEMNWVRQAPGKGLEWVSYITTSGSTIYYADSVKGRFTMSRDNAKKSLYLEMNSLRAEDTAVYYCAREECTNGVCYKDYQYYGMDVWGQGTTVTVSS
VL: DIQMTQSPSSVSASVGDRVTITCRASQNINTWLAWYQQKPGKVPKLLIYAASSLQSGVPSRFSGSGSGTDFTLTISSLQPEDFATYYCQQANSFPLTFGGGTKVEIK
notes: Human variable domains, mouse Fc (H3M); also called H2M1766N
B7: H2M1764N (antibody, mouse IgG2, V domains shown)
VH: B3 VH
VL: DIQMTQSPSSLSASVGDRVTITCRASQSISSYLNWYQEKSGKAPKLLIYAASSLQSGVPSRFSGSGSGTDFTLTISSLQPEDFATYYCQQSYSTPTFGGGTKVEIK
notes: as for B5
B8: H2M1712N (antibody, mouse IgG2, V domains shown)
VH: B4 VH with T30S, Y106L
VL: B4 VL with N77S
notes: as for B5
B9: H2M1811N (antibody, mouse IgG2, V domains shown)
VH: QVQLVQSGAEAREPGASVRVSCKASGYTFTDYFIHWVRQAPGQGLEWMGWINPNSGATNFAQKFQGRVTMTRDTSLITAYMDLSRLKSDDAAVFYCARDVDGSGWYLDFWGQGTLVTVSS
VL: EIVLTQSPATLSLSPGERATLSCRASQSVSIYLAWYQQKPGQAPRLLIYDASNRATGIPARFSGSGSGTDFTLTISRLEPEDFAVYYCQQRSDWPPSITFGQGTRLEIK
notes: as for B5

Target: T1, Dimeric monkey CD48-mFc
Assay: SPR (Biacore), antibody captured by anti-Fc, CD48 in solution, 25 C
Description: (§1) Measurements were conducted on a T100-2 BIACORE™ instrument (Biacore Life Sciences division of GE Healthcare, Piscataway, N.J.). Antibodies (either with mouse Fc [designated “H2M” or “H3M”] or human IgG4 Fc [designated “H4H”]) were captured through an anti-Fc chip surface, and CD48 was flowed over the surface either in a monomeric (soluble CD48 expressed with a myc-myc-hexa-histidine C-terminal tag [mmH]) or dimeric (soluble CD48 expressed with a C-terminal Fc fusion [mFc]) format.
(§2) The soluble CD48 was applied to the flow cell in separate injections at different concentrations, and kinetic association (kₐ) and dissociation (kd) rate constants were determined by fits to the kinetic binding data using Biacore software. Binding dissociation equilibrium constants and dissociation half-times were calculated from the kinetic rate constants as: KD=kd/kₐ; t_{1/2}=(ln 2/kd) (units: ka=M⁻¹*s⁻¹; kd=s⁻¹; KD=M; T½=min) (Tables 3-6).

Kd [nM] | T½ [min] | koff [s⁻¹] | kon [M⁻¹ s⁻¹] | Binder
0.281 | 48 | 0.000242 | 861000 | B1
1.48 | 10 | 0.00119 | 805000 | B2
0.525 | 88 | 0.000132 | 251000 | B3
0.0519 | 168 | 6.88e-05 | 1.33e+06 | B4

Target: T2, Monomeric monkey CD48-mmH
Assay: as above
Description: as §1, §2

Kd [nM] | T½ [min] | koff [s⁻¹] | kon [M⁻¹ s⁻¹] | Binder
0.843 | 44 | 0.000265 | 315000 | B1
1.25 | 32 | 0.000362 | 289000 | B2
2.34 | 56 | 0.000206 | 87700 | B3
2.34 | 9 | 0.00124 | 527000 | B4

Target: T1, Dimeric monkey CD48-mFc
Assay: SPR (Biacore), antibody captured by anti-Fc, CD48 in solution, 37 C
Description: as §1, §2

Kd [nM] | T½ [min] | koff [s⁻¹] | kon [M⁻¹ s⁻¹] | Binder
0.3 | 22 | 0.000516 | 1.72e+06 | B1
3.2 | 2 | 0.00524 | 1.64e+06 | B2
7.4 | 8 | 0.00142 | 192000 | B3
0.047 | 101 | 0.000114 | 2.42e+06 | B4

Target: T2, Monomeric monkey CD48-mmH
Assay: as above
Description: as §1, §2

Kd [nM] | T½ [min] | koff [s⁻¹] | kon [M⁻¹ s⁻¹] | Binder
1.19 | 30 | 0.000382 | 320000 | B1
3.72 | 9 | 0.00122 | 327000 | B2
2.91 | 19 | 0.00062 | 213000 | B3
2.49 | 9 | 0.00133 | 534000 | B4

Target: T3, Monomeric human CD48-mmH
Assay: as above
Description: as §1, §2

Kd [nM] | T½ [min] | koff [s⁻¹] | kon [M⁻¹ s⁻¹] | Binder
2.74 | 18 | 0.000644 | 235000 | B5
2.23 | 18 | 0.000636 | 286000 | B1
3.84 | 19 | 0.00062 | 161000 | B6
9.63 | 4 | 0.00273 | 284000 | B2
94.7 | 1 | 0.016 | 169000 | B7
109 | 1 | 0.0114 | 105000 | B3
16.6 | 1 | 0.014 | 846000 | B8
12.7 | 1 | 0.0169 | 1.33e+06 | B4
22.7 | 4 | 0.00295 | 130000 | B9

Target: T4, Dimeric human CD48-mFc
Assay: as above
Description: as §1, §2

Kd [nM] | T½ [min] | koff [s⁻¹] | kon [M⁻¹ s⁻¹] | Binder
0.0663 | 140 | 8.27e-05 | 1.25e+06 | B5
0.036 | 255 | 4.53e-05 | 1.26e+06 | B1
0.342 | 36 | 0.000324 | 949000 | B6
0.0654 | 180 | 6.42e-05 | 981000 | B2
0.586 | 28 | 0.000412 | 702000 | B7
0.33 | 116 | 9.94e-05 | 301000 | B3
0.252 | 17 | 0.000685 | 2.72e+06 | B8
0.0267 | 184 | 6.28e-05 | 2.35e+06 | B4
0.966 | 45 | 0.000256 | 265000 | B9

Reference: patent US20130230533A1 (Regeneron, published 2013)
